Experimental findings from patent publication US11834472B2, “Anti-IL-22 antibodies, antibody fragments, their immunoconjugates and uses thereof” (BioAtla, Inc., priority 2018, dated 2023) are described below.

The nature of data set [1]: Aggregate formation at 10 mg/mL in PBS. Type of data set: physicochemical.
In data set [2] the target is T1, mouse IL-22 (mIL-22) (Mus musculus, UniProt Q9JJY9).
T1 sequence (Q9JJY9 34-179): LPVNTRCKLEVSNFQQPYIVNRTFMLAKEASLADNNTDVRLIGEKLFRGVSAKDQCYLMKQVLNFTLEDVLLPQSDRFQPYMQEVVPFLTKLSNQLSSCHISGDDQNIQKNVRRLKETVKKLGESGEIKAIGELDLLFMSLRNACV
Briefly: Inhibition of mIL-22 induced Stat3 phosphorylation in HepG2 cells. Type of data set: cell-based. As to conditions: mAb 6.7 nM. How it is done: One of the immediate functions of IL-22 is inducing phosphorylation of Stat3, a protein in the signaling pathway of IL-22. The 10 antibodies of Table 1 were tested in a cell-based assay for blocking IL-22-dependent phosphorylation of Stat3 through human or mouse IL-22 in HepG2 cells. Antibody hum10 and mutant CPE-LC-E049K were used as controls. Four concentrations of each of the antibodies were used: 0.11 μg/mL, 0.33 μg/mL, 1 μg/mL, and 3 μg/mL.
30,000 human HepG2 cells were seeded in 96 well plates and serum starved overnight. Three-fold dilutions of anti-IL-22 antibodies and control hum10 antibody at concentrations of 0.11 μg/mL, 0.33 μg/mL, 1 μg/mL, and 3 μg/mL were incubated with 200 ng/ml of hIL-22 or mIL-22 at 37° C. for one hour then added to the serum starved human HepG2 cells. The HepG2 cells were incubated with the antibody-IL-22 mixture at 37° C. for 20 minutes. After incubation, HepG2 cells were washed with PBS and lysed. Half of the cell lysate was used to determine the level of phosphorylated Stat3 using Cell Signaling kit #7300 following the vendor's protocol and the other half of the cell lysate was used to determine the level of total Stat3 by Western blot analysis using a Santa Cruz rabbit polyclonal antibody (Sc-7179) against human Stat3.

Data set [3] has as its target T2, mouse IL-22 (Mus musculus, UniProt Q9JJY9).
T2 sequence (Q9JJY9 34-179): T1 sequence (Q9JJY9 34-179)
In words: SPR capture assay, affinity to mouse IL-22. Particulars: mouse IL-22, SPR. The format is binding. The protocol: (§1) The affinity of the 10 antibodies of Table 1 was measured by Surface Plasma Resonance (SPR) using a capture assay in PBS buffer to generate binding curves at four different concentrations of each antibody (0.05, 0.1, 0.5, and 1.0 μg/ml). The Ka, Kd and KD values for the mutant antibodies were calculated from the curves for each of the antibodies.
(§2) The affinity of the 10 antibodies of Table 1 was measured by Surface Plasma Resonance (SPR) using a capture assay on a SPR-2 instrument (SierraSensiors, Hamburg, Germany). The antigens hIL-22 and mIL-22 were immobilized on chips. The running buffer for the assay contained 10 mM HEPES with a pH of 7.4, 500 mM NaCl, and 0.05% TWEEN® 20. […] The off-rate was measured for 6 minutes. Binding constants were calculated using the curve fitting software Analyzer2 (Sierra Sensors). Sensorgrams were analyzed with the instrument specific software and with BIAevaluation 4.1 software. The binding data were analyzed using the Langmuir 1:1 model (human IL-22) or a model for a heterogeneous ligand ([…]).
(§3) The antibodies were tested at four different concentrations of each antibody: 0.33 nM, 0.67 nM, 3.3 nM, 6.7 nM for hIL-22; 1, 2, […] for mIL-22. Antibody CPE-LC-E049K was used as a control.

A short description of data set [4]: Thermostability. Type of data set: physicochemical.
Data set [5] concerns the target T3, human IL-22 (Homo sapiens, UniProt Q9GZX6).
T3 sequence (Q9GZX6 34-179): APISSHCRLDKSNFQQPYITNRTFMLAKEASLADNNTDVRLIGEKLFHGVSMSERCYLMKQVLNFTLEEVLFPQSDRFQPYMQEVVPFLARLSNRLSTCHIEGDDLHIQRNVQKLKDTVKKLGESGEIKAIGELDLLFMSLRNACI
Briefly: SPR capture assay, affinity to human IL-22. Particulars: human IL-22, SPR. The format is binding. How it is done: as §1, §2, §3

Data set [6] relates to imiquimod (IMQ) induced psoriasis. The format is in vivo. Particulars: for reduction in body weight of the treated mice: days 0-7, in comparison to dexamethasone / PBS (FIG. 13). The text has this:
Two anti-IL-22 antibodies of the present invention, CPS02 and CPS09, were used for the treatment of imiquimod (IMQ) induced psoriasis in mice (FIG. 12). The mice were male BALB/c mice, which were an albino, laboratory-bred strain of the house mouse. A total of 70 mice, at a body weight of 18-20 g, were acclimated for 7 days before induction of psoriasis.
The 70 mice were randomized into 7 groups (10 mice in each group). One group (group 1) was used as a negative control to which no imiquimod was administered to the mice, which was instead replaced with Vaseline. […] The other 6 groups (groups 2-7) were dosed topically with imiquimod at a dosage of 82.5 mg/mouse (5% cream) once daily (qd) for 8 consecutive days from day 0 to day 7 (20 mg for the left ear, 62.5 mg for the shaved back) to induce psoriasis. The back skin was shaved to expose an area of 2×3 cm^2. For the Vaseline control group, the Vaseline was also applied at 82.5 mg/mouse once daily (qd) for 8 consecutive days (20 mg for left ear, 62.5 mg for the shaved back) from day 0 to day 7.
Group 2 was a group of psoriasis-induced mice that were untreated to serve as a control group. The treatment period completely overlapped with the imiquimod application period (day 0 to day 7). For group 2, the mice received both imiquimod and […] on each day of the 8-day period (day 0 to day 7). For the groups that received intravenous (I.V.) injection, the imiquimod was applied within one hour after the I.V. injection on days 0 and 3.
Group 3 was treated with the steroid dexamethasone, which is a current therapeutic treatment used for psoriasis. The dexamethasone was topically applied twice a day (BID) for 8 days. Group 4 was treated with phosphate-buffered saline (PBS), which served as a negative control. Group 5 was treated with an isotype control antibody that also served as a negative control. Groups 6-7 were treated with the anti-IL22 antibodies CPS02 (A) and CPS09 (B), respectively. The treatments for Groups 4-7 were administered by a single intravenous (I.V.) injection on each of days 0 and 3. 3 mice in group 6 died on day 0 and 2 died on day 1. On day 3, the I.V. injection dosage for this group was decreased to 10 mg/kg.
During the 8 day treatment period, the ear thickness was measured on days 0, 3, 5 and 7. The body weight and various skin scores were recorded daily. Pictures of the psoriasis sites were taken on days 0, 3, 5 and 7. On days 1 and 4, about 60 μl blood was collected via retro-orbital bleeding over 24 hours and placed in BD Microtainer® tubes coated with dipotassium ethylenediaminetetraacetic acid (K2EDTA). Plasma was then collected (to get at least 20 μl plasma) and stored at −80° C.
Skin scores for erythema, scales and thickness were measured daily according to an established grading system. The erythema, scales and thickness were scored independently on a scale of from 0 to 4: 0 means none, 1 means slight, 2 means moderate, 3 means marked, and 4 means very marked. The cumulative (total) skin score was also calculated.
The effects of the treatments were analyzed statistically using two-way analysis of variance (ANOVA, Bonferroni post-tests) or one-way ANOVA analysis. For comparisons between the treatment groups and the control group, the p value is denoted in FIGS. 13-18 as (*) if less than 0.05, (**) if less than 0.01, or (***) if less than 0.001.

Data set [7] is described as follows: Pharmacokinetics in NOD SCID mice, plasma concentration by solid phase ELISA. The format is in vivo, mouse. As to conditions: after a 10 mg/kg IV injection. How it is done:
The pharmacokinetics of the mutant antibodies of Table 1 were analyzed in mice. The antibodies were injected into mice by IV injection at two doses 0.3 mg/kg and 10 mg/kg. The concentrations of the injected antibodies in the blood plasma were measured by solid phase ELISA.
Two anti-IL-22 antibodies CPS02 and CPS09 were tested in NOD SCID mice. The antibodies were injected via IV at two dosages: 0.3 mg/kg and 10 mg/kg. Three mice were used for each dose group. Blood samples were retrieved from the mice at 10 min, 1 h, 3 h 7 h, 24 h, 48 h, 96 h, 168 h, 240 h and 336 h after the IV injection. The concentrations of the injected antibodies in the blood samples were measured by solid phase ELISA.

Positions count from the first letter of the chain named. In names and notes the source's numbering stands. Read-outs that look alike come from different tables or passages of the source.

B1: CPS09: mutant anti-IL-22 antibody binding human and mouse IL-22; light chain LC-04, heavy chain HC-25 (antibody, V domains shown)
VH: QVQLVQSGAEVKKPGASVKVSCKASGYIFRSYWIHWIRQPPGKGLEWIGRIYPGTGRTYYNEKFKGRVTISADKSISTAYLQWSSLKASDTAMYYCARSYDYSVAYWGQGTLVTVSS
VL: AIQLTQSPSSLSASVGDRVTITCSASSSVSYMHWYLQKPGQSPQLLIYETRKLASGVPSRFSGSGSGTDFTFTISSLEAEDAATYYCQQWSSNPYITFGQGTKVEIKR
With B1, the “Aggregate formation at 10 mg/mL in PBS” value in data set [1] was “no”. Besides, the “STAT3 Phosphorylation; mIL22 % inhibition” value in data set [2] was 63.12%. Further, in data set [3], the ka amounted to 194000 M·s and the kd worked out at 0.000768 s⁻¹. Besides, in data set [4], the “Thermostability (% remaining activity 60 min); of duplicate samples” value amounted to 102%. In data set [5], the ka turned out to be 860000 M·s and the kd is 2.18e-05 s⁻¹. Besides, in data set [6] (IMQ psoriasis mice), the “effect in treating psoriasis in the mouse model (summary)” value is listed as “especially effective in treating psoriasis” and the “reduction in body weight of the treated mice” value is recorded as “less reduction in body weight”. For the same molecule, the “reduction in body weight of the treated mice” value in data set [6] (IMQ psoriasis mice, listed as CSP09) is “reduction in body weight similar to the PBS buffer negative control”. Also, the “side effect (summary)” value in data set [6] (in comparison with the known treatment (dexamethasone)) is given as “only a minimal side effect”. Further, in data set [6] (vs negative controls (isotype matched antibody, PBS, vehicle) (FIG. 14)), the ear skin thickness entry is “less”. Further, the skin erythema score entry in data set [6] (vs negative controls (isotype matched antibody, PBS, vehicle) (FIG. 15)) is “lower”. Also, in data set [6] (vs negative controls (isotype matched antibody, PBS, vehicle) (FIG. 16)), the skin scale score entry was “lower”. In addition, the skin thickness entry in data set [6] (vs negative controls (isotype matched antibody, PBS, vehicle) (FIG. 17)) is given as “lower”. Besides, in data set [7], the half-life in mice result is “about 16 hours”.

B2: CPS14 (antibody, V domains shown)
VH: B1 VH with R30T, E62R
VL: B1 VL
Consider B2, for which, in data set [3], the ka was 256000 M·s and the kd amounted to 0.00123 s⁻¹. For the same molecule, in data set [5], the ka is 1.13e+06 M·s and the kd amounted to 3.55e-05 s⁻¹.

B3: LC-E049K: one of the mutant antibodies in the CPE library, used as a control (antibody, V domains shown)
VH: B1 VH with R30T, R57N, Y102S, V104C
VL: B1 VL with E49K, R51S
Consider B3, for which the ka in data set [3] amounted to 34100 M·s; in data set [5], 381000 M·s. For the same molecule, the kd stood at 0.00137 s⁻¹ in data set [3] and 5.93e-05 s⁻¹ in data set [5].

B4: CPS17: mutant anti-IL-22 antibody binding human and mouse IL-22; light chain LC-04, heavy chain HC-49 (antibody, V domains shown)
VH: B1 VH with R57N, E62R, D101M
VL: B1 VL
As for B4, the ka worked out at 252000 M·s in data set [3] and 1.33e+06 M·s in data set [5]. The figures for the kd in data set [3] and in data set [5] were 0.00158 s⁻¹ and 6.94e-05 s⁻¹, respectively.

B5: CPS04: mutant anti-IL-22 antibody binding human and mouse IL-22; light chain LC-07, heavy chain HC-09 (antibody, V domains shown)
VH: B1 VH with R57N, E62R, Y102S
VL: B1 VL with E49K, R51S, A54L
Take B5: in data set [3], the ka stood at 279000 M·s and the kd is 0.00118 s⁻¹. Further, in data set [5], the ka is 1.28e+06 M·s and the kd was found to be 3.74e-05 s⁻¹.
